Measurements from US20210388105A1 (ELPISCIENCE SUZHOU BIOPHARMA, published 2021).

Tests used:
Assay in all cases: FACS, mutant-EGFP on HEK293F cells
[1] = target: T1, KW27-17 (human CD39 mutant, C-terminal EGFP) (human, UniProt P49961 1-510)
T1 construct: expressed on HEK293F cells; not shown: C-terminal EGFP fusion (vector pCMV3-GFPSpark)
T1 chain: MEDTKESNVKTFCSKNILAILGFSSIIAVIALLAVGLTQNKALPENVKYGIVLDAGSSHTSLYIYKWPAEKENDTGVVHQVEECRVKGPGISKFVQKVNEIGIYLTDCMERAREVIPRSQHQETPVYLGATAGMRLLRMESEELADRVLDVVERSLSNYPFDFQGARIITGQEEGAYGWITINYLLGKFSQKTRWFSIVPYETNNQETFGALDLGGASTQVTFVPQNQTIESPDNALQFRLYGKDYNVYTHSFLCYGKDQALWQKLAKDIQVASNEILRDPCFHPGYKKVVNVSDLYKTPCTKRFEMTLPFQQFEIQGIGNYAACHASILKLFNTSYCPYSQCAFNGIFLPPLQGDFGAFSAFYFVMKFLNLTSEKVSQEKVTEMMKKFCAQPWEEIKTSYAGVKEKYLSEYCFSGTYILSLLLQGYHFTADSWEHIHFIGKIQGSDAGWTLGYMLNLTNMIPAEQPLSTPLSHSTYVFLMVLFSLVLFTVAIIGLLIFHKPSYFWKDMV
How it was run: (§1)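 HEK293F cells were transfected with human CD39 mutants carrying C-terminal GFP and used 3 days later. Antibodies were titrated from 100 nM (3-fold, 11 points) and detected by FACS with AlexaFluor647 anti-hIgG. Relative binding was AlexaFluor647 intensity divided by GFP intensity.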

[2] = target: T2, KW27-12 (human CD39 mutant, C-terminal EGFP) (human, UniProt P49961 1-510)
T2 construct: expressed on HEK293F cells; not shown: C-terminal EGFP fusion (vector pCMV3-GFPSpark)
T2 chain: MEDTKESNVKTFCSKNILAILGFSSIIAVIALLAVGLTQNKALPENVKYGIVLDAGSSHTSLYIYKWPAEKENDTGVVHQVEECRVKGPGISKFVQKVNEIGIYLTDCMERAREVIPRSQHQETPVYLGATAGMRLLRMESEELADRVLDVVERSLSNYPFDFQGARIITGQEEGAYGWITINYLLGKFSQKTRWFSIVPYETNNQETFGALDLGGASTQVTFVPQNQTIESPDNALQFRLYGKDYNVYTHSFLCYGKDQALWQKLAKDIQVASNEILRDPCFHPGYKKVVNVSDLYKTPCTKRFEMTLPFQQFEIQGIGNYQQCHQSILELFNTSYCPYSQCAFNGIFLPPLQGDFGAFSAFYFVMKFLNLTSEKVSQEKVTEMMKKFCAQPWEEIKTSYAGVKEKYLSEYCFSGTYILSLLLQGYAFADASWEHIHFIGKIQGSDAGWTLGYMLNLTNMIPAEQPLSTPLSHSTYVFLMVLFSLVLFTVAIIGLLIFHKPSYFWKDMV
How it was run: as §1

[3] = target: T3, KW27-5 (human CD39 mutant, C-terminal EGFP) (human, UniProt P49961 1-510)
T3 construct: expressed on HEK293F cells; not shown: C-terminal EGFP fusion (vector pCMV3-GFPSpark)
T3 chain: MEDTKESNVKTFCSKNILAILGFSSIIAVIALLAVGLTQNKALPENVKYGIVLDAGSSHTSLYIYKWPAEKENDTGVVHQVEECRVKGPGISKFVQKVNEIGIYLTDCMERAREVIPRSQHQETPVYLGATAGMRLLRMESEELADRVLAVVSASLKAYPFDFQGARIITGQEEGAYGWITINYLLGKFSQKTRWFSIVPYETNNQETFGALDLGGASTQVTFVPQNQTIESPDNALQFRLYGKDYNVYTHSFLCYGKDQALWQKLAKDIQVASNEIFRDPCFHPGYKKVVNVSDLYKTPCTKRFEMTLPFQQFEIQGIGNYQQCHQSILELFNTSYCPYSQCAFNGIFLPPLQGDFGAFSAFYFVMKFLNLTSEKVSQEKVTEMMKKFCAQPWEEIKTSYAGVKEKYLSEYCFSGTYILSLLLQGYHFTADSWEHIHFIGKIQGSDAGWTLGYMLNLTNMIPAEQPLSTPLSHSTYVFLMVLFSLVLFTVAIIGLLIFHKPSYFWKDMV
How it was run: as §1

[4] = target: T4, KW27-9 (human CD39 mutant, C-terminal EGFP) (human, UniProt P49961 1-510)
T4 construct: expressed on HEK293F cells; not shown: C-terminal EGFP fusion (vector pCMV3-GFPSpark)
T4 chain: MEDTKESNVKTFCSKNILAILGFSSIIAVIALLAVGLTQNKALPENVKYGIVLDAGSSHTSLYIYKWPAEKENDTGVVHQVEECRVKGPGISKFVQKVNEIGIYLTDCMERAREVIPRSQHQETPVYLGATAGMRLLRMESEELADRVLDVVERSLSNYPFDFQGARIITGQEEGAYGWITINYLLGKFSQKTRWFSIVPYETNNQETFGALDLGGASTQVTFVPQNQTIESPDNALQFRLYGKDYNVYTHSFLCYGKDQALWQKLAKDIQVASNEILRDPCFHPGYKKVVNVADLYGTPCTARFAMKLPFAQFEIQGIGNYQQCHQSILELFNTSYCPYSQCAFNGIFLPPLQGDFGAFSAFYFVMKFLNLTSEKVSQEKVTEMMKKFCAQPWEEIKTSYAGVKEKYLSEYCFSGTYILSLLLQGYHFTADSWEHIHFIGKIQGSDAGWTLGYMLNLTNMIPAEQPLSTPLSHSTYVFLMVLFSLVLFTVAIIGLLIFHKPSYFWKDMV
How it was run: as §1

Measured: binding result

B1: hu23.H5L5 (antibody, V domains shown)
VH: QVQLVQSGAEVKKPGASVKVSCKASGYNLKDTFLHWVRQAPGQGLEWMGRIDPANGNIKYDPKFQGRVTITADTSANTAYMELISLRSEDTAVYYCANSPYYYGSGYRIFDVWGQGTTVTVSS
VL: QIVLTQSPATLSLSPGERATLSCSAFSSVNYMHWYQQKPGQAPRLLIYTTSNLASGIPTRFSGSGSGTSYTLTISSLEPEDFAVYYCQQRSTYPFTFGQGTKLEIK
notes: humanized c23
binds: [1] | [2] | [3] | [4]

B2: c35 (antibody, V domains shown)
VH: EVRLQQSGAELVKPGASVKLSCTASGFNIEDTYVHWMKQRPEQGLEWIGRIDPAIDNSKYDPKFQGKATITAVSSSNTAYLQLSSLTSEDTAVYYCALYDGYNVYAMDYWGQGTSVTVSS
VL: DIVMTQAAFSNPVTLGTSASISCRSSKNLLHSNGITYLYWYLQRPGQSPQLLIYRASTLASGVPNRFSGSESGTDFTLRISRVEAEDVGVYYCAQLLELPHTFGGGTKLEIK
notes: its making is not described; also called chimeric antibody c35
binds: [1] | [2] | [3] | [4]

B3: Antibody 9-8B (antibody, V domains shown)
VH: QIQLVQSGPELKKPGETVKISCKASGYTFTHYGMNWVKQAPGKGLKWMGWINTYTGELTYADDFKGRFAFSLETSASTAYLQINNLKNEDTATYFCARRAYYRYDYVMDYWGQGTSVTVSS
VL: DIVMTQSQKFMSTSVGDRVSVTCKASHNVGTNVAWYQQKPGQSPKALIYSASYRYSGVPGRFTGSGSGTDFTLTISNVQSEDLAEYFCHQYNNYPYTFGGGTKLEIK
binds: [1] | [2] | [3] | [4]

B4: Antibody T895 (antibody, V domains shown)
VH: EVQLQQSGPELVKPGASVKMSCKASGYTFTDYNMHWVKQSHGRTLEWIGYIVPLNGGSTFNQKFKGRATLTVNTSSRTAYMELRSLTSEDSAAYYCARGGTRFAYWGQGTLVTVSA
VL: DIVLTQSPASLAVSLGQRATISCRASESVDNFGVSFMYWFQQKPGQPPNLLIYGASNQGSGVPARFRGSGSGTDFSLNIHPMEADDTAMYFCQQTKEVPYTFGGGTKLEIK
notes: also called 31895
binds: [1] | [2] | [3] | [4]

B5: c34 (antibody, V domains shown)
VH: EIQVQQSGPELVKPGASVKVSCKASGYSFTDYNMYWVKQSHGKSLEWIGFIDPYNGYTSYNQKFKGKATLTIDKSSSTAFMHLNSLTSEDSAVYYCAIYGYDDAYYFDYWGQGTTLTVSS
VL: QIVLTQSPAIMSASPGEKVTITCSATSSVSYMHWFRQKPGTSPKLWIYSTSNLASGVPARFSGSGSGTSYSLTISRMAAEDAATYYCQQRITYPFTFGSGTKLEIT
notes: its making is not described; also called chimeric antibody c34
binds: [1] | [2] | [3] | [4]
